According to PMC4643140, “Low-Temperature-Induced Expression of Rice Ureidoglycolate Amidohydrolase is Mediated by a C-Repeat/Dehydration-Responsive Element that Specifically Interacts with Rice C-Repeat-Binding Factor 3”:

Target: GST-OsCBF3 (Oryza sativa (rice), UniProt Q64MA1 1-238)
Experiment: EMSA; 20 fmol probe, 1 ug protein; unlabeled E2 (2 pmol) competes; 20 uL reactions, Light-Shift Chemiluminescent EMSA Kit per manufacturer; buffer, salt, pH and temperature not stated
Details: protein: recombinant; tags: N-terminal GST (pGEX-4T-1); label: biotin on probe; blunt

Sequence of GST-OsCBF3 (Q64MA1 whole entry): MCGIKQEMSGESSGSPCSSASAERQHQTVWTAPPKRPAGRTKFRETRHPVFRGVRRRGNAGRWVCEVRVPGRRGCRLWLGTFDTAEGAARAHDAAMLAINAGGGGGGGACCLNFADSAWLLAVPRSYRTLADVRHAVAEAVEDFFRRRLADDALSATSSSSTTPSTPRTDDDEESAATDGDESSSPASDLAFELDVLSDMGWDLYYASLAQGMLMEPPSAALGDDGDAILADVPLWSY

B1: E2 (dsDNA)
DNA 1: AGCGTAGCTGCGGCGGAGAGCTCGCCGCCGACCCGCCCGGAGATTGGTTGCTTGCGCTG
DNA 2: CAGCGCAAGCAACCAATCTCCGGGCGGGTCGGCGGCGAGCTCTCCGCCGCAGCTACGCT
  binding result: binds
